Test results as given in IntAct's records for PubMed 27009418.

B1: Calsenilin (Mus musculus), Q9QXT8 (parent)
chain: MQRTKEAVKASDGNLLGDPGRIPLSKRESIKWQRPRFTRQALMRCCLIKWILSSAAPQGSDSSDSELELSTVRHQPEGLDQLQAQTKFTKKELQSLYRGFKNECPTGLVDEDTFKLIYSQFFPQGDATTYAHFLFNAFDADGNGAIHFEDFVVGLSILLRGTVHEKLKWAFNLYDINKDGCITKEEMLAIMKSIYDMMGRHTYPILREDAPLEHVERFFQKMDRNQDGVVTIDEFLETCQKDENIMNSMQLFENVI

Variants of: B1
Conditions: with psn1_human PSEN1, P49768

| Variant | effect of a mutation on the interaction |
| --- | --- |
| E186Q | decreasing interaction |
| E234Q | decreasing interaction |
